Legend:
[1] = western blot and immunostaining, anti-pT410, endogenous PKCζ; settings: glycan lost; control: control (Egfp shRNA) ESCs
[2] = western blot anti-pT410 after FGF4 stimulation; settings: glycan lost; control: control cells stimulated with FGF4
[3] = anti-FLAG IP, anti-pT410 blot; settings: glycan gained; control: untreated PKCζ-FLAG cells
[4] = western blot anti-pT410 during PrE differentiation; settings: glycan gained; control: PrE day 4 cells without inhibitor
[5] = western blot of phosphorylated PKCζ-FLAG; settings: glycan lost; control: wild-type PKCζ-FLAG

| Protein | other: PKCζ Thr-410 phosphorylation [1] | other: PKCζ Thr-410 phosphorylation [2] | other: PKCζ Thr-410 phosphorylation [3] | other: PKCζ Thr-410 phosphorylation [4] | other: PKCζ phosphorylation [5] |
| --- | --- | --- | --- | --- | --- |
| PKCζ: Ogt KD (protein) parent chain: MPSRTDPKMDRSGGRVRLKAHYGGDILITSVDAMTTFKDLCEEVRDMCGLHQQHPLTLKWVDSEGDPCTVSSQMELEEAFRLVCQGRDEVLIIHVFPSIPEQPGMPCPGEDKSIYRRGARRWRKLYRANGHLFQAKRFNRGAYCGQCSERIWGLSRQGYRCINCKLLVHKRCHVLVPLTCRRHMDSVMPSQEPPVDDKNDGVDLPSEETDGIAYISSSRKHDNIKDDSEDLKPVIDGVDGIKISQGLGLQDFDLIRVIGRGSYAKVLLVRLKKNDQIYAMKVVKKELVHDDEDIDWVQTEKHVFEQASSNPFLVGLHSCFQTTSRLFLVIEYVNGGDLMFHMQRQRKLPEEHARFYAAEICIALNFLHERGIIYRDLKLDNVLLDADGHIKLTDYGMCKEGLGPGDTTSTFCGTPNYIAPEILRGEEYGFSVDWWALGVLMFEMMAGRSPFDIITDNPDMNTEDYLFQVILEKPIRIPRFLSVKASHVLKGFLNKDPKERLGCRPQTGFSDIKSHAFFRSIDWDLLEKKQTLPPFQPQITDDYGLDNFDTQFTSEPVQLTPDDEDVIKRIDQSEFEGFEYINPLLLSAEESV | increases | increases |  |  |  |
| PKCζ: Thiamet G (protein) parent chain: MPSRTDPKMDRSGGRVRLKAHYGGDILITSVDAMTTFKDLCEEVRDMCGLHQQHPLTLKWVDSEGDPCTVSSQMELEEAFRLVCQGRDEVLIIHVFPSIPEQPGMPCPGEDKSIYRRGARRWRKLYRANGHLFQAKRFNRGAYCGQCSERIWGLSRQGYRCINCKLLVHKRCHVLVPLTCRRHMDSVMPSQEPPVDDKNDGVDLPSEETDGIAYISSSRKHDNIKDDSEDLKPVIDGVDGIKISQGLGLQDFDLIRVIGRGSYAKVLLVRLKKNDQIYAMKVVKKELVHDDEDIDWVQTEKHVFEQASSNPFLVGLHSCFQTTSRLFLVIEYVNGGDLMFHMQRQRKLPEEHARFYAAEICIALNFLHERGIIYRDLKLDNVLLDADGHIKLTDYGMCKEGLGPGDTTSTFCGTPNYIAPEILRGEEYGFSVDWWALGVLMFEMMAGRSPFDIITDNPDMNTEDYLFQVILEKPIRIPRFLSVKASHVLKGFLNKDPKERLGCRPQTGFSDIKSHAFFRSIDWDLLEKKQTLPPFQPQITDDYGLDNFDTQFTSEPVQLTPDDEDVIKRIDQSEFEGFEYINPLLLSAEESV |  |  | decreases | decreases |  |
| PKCζ: T408A (protein) parent chain: MPSRTDPKMDRSGGRVRLKAHYGGDILITSVDAMTTFKDLCEEVRDMCGLHQQHPLTLKWVDSEGDPCTVSSQMELEEAFRLVCQGRDEVLIIHVFPSIPEQPGMPCPGEDKSIYRRGARRWRKLYRANGHLFQAKRFNRGAYCGQCSERIWGLSRQGYRCINCKLLVHKRCHVLVPLTCRRHMDSVMPSQEPPVDDKNDGVDLPSEETDGIAYISSSRKHDNIKDDSEDLKPVIDGVDGIKISQGLGLQDFDLIRVIGRGSYAKVLLVRLKKNDQIYAMKVVKKELVHDDEDIDWVQTEKHVFEQASSNPFLVGLHSCFQTTSRLFLVIEYVNGGDLMFHMQRQRKLPEEHARFYAAEICIALNFLHERGIIYRDLKLDNVLLDADGHIKLTDYGMCKEGLGPGDTTSTFCGTPNYIAPEILRGEEYGFSVDWWALGVLMFEMMAGRSPFDIITDNPDMNTEDYLFQVILEKPIRIPRFLSVKASHVLKGFLNKDPKERLGCRPQTGFSDIKSHAFFRSIDWDLLEKKQTLPPFQPQITDDYGLDNFDTQFTSEPVQLTPDDEDVIKRIDQSEFEGFEYINPLLLSAEESV |  |  |  |  | no change |
| PKCζ: PUGNAc (protein) parent chain: MPSRTDPKMDRSGGRVRLKAHYGGDILITSVDAMTTFKDLCEEVRDMCGLHQQHPLTLKWVDSEGDPCTVSSQMELEEAFRLVCQGRDEVLIIHVFPSIPEQPGMPCPGEDKSIYRRGARRWRKLYRANGHLFQAKRFNRGAYCGQCSERIWGLSRQGYRCINCKLLVHKRCHVLVPLTCRRHMDSVMPSQEPPVDDKNDGVDLPSEETDGIAYISSSRKHDNIKDDSEDLKPVIDGVDGIKISQGLGLQDFDLIRVIGRGSYAKVLLVRLKKNDQIYAMKVVKKELVHDDEDIDWVQTEKHVFEQASSNPFLVGLHSCFQTTSRLFLVIEYVNGGDLMFHMQRQRKLPEEHARFYAAEICIALNFLHERGIIYRDLKLDNVLLDADGHIKLTDYGMCKEGLGPGDTTSTFCGTPNYIAPEILRGEEYGFSVDWWALGVLMFEMMAGRSPFDIITDNPDMNTEDYLFQVILEKPIRIPRFLSVKASHVLKGFLNKDPKERLGCRPQTGFSDIKSHAFFRSIDWDLLEKKQTLPPFQPQITDDYGLDNFDTQFTSEPVQLTPDDEDVIKRIDQSEFEGFEYINPLLLSAEESV |  |  | decreases | decreases |  |
